Data published in the RNAGym collection of RNA variant scans (doi:10.7554/elife.90254).

B1: LINE1-mini (parent)
chain: GGCAGAGCUCAACACAGCGUGGCAAAGUGGCUGUGGCUAGACUGCC

Variants of: B1
Assay: self-cleavage, relative activity (ratio to wild type); higher = more cleavage; in vitro, sequencing; the parent is a self-cleaving ribozyme

First: GGCAGAGCUCAAGACAGCGUUGCAAAGUGGCUGUGGCUAGACUGCC
Second: GGCAGAGCUCAAGACAGCGUCGCAAAGUGGCUGUGGCUAGACUGCC
The self-cleavage of the first is lower: 0.31 for the first, 0.33 for the second.

Compared with GGCAGAGCUCAAGACAGCGUAGCAAAGUGGCUGUGGCUAGACUGCC, GGCAGAGCUCAAGACAGCGUGGCAAAGUGGCUGUGGCUAGGCUGCC is lower in self-cleavage: 0.38 for the first, 0.09 for the second.

Compared with GGCAGAGCUCAAGACAGCGUGGCAAAGUGGCUGUGGCUAGUCUGCC, GGCAGAGCUCAAGACAGCGUGGCAAAGUGGCUGUGGCUAGCCUGCC is lower in self-cleavage: 0.17 for the first, 0.04 for the second.

Compared with GGCAGAGCUCAAGACAGCUUGGCAAAGUGGCUGUGGCUAGACUGCC, GGCAGAGCUCAAGACAGCCUGGCAAAGUGGCUGUGGCUAGACUGCC is lower in self-cleavage: 0.11 for the first, 0.06 for the second.

Compared with GGCAGAGCUCAAGACAGCAUGGCAAAGUGGCUGUGGCUAGACUGCC, GGCAGAGCUCAAGACAGCGUGGCAAAGUGGCUGUGGCCAGACUGCC is higher in self-cleavage: 0.2 for the first, 0.41 for the second.

Compared with GGCAGAGCUCAAGACAGCGUGGCAAAGUGGCUGUGGCAAGACUGCC, GGCAGAGCUCAAGACAGCGUGGCAAAGUGGCUGUGGCGAGACUGCC is lower in self-cleavage: 0.05 for the first, 0.01 for the second.

Going from GGCAGAGCUCAAGACAGCGUGGCAAAGUGGCUGUGGCUAGACUGCU to GGCAGAGCUCAAGACAGCGUGGCAAAGUGGCUGUGGCUAGACUGCA, the self-cleavage falls from 0.46 to 0.28.

Compared with GGCAGAGCUCAAGACAGCGUGGCAAAGUGGCUGUGGCUAGACUGCG, GGCAGAGCUCAAGACAGCGUGGCAAAGUGGCUUUGGCUAGACUGCC is lower in self-cleavage: 0.19 for the first, 0.03 for the second.

Compared with GGCAGAGCUCAAGACAGCGUGGCAAAGUGGCUAUGGCUAGACUGCC, GGCAGAGCUCAAGACAGCGUGGCAAAGUGGCUCUGGCUAGACUGCC is lower in self-cleavage: 0.11 for the first, 0.04 for the second.

First: GGCAGAGCUCAAUACAGCGUGGCAAAGUGGCUGUGGCUGGACUGCC
Second: GGCAGAGCUCAAUACAGCGUGGCAAAGUGGCUGUGGCUCGACUGCC
The self-cleavage of the first is lower: 0.11 for the first, 0.13 for the second.

Compared with GGCAGAGCUCAAUACAGCGUGGCAAAGUGGCUGUGGCUUGACUGCC, GGCAGAGCUCAAGACAGCGUGGCAAAGUGGCUGUGGCUAGACUGGC is higher in self-cleavage: 0.08 for the first, 0.23 for the second.

Compared with GGCAGAGCUCAAGACAGCGUGGCAAAGUGGCUGUGGCUAGACUGUC, GGCAGAGCUCAAGACAGCGUGGCAAAGUGGCUGUGGCUAGACUGAC is lower in self-cleavage: 0.26 for the first, 0.25 for the second.

Going from GGCAGAGCUCAAUACCGCGUGGCAAAGUGGCUGUGGCUAGACUGCC to GGCAGAGCUCAAUACUGCGUGGCAAAGUGGCUGUGGCUAGACUGCC, the self-cleavage rises from 0.1 to 0.13.

Going from GGCAGAGCUCAAUACGGCGUGGCAAAGUGGCUGUGGCUAGACUGCC to GGCAGAGCUCAAGACAGCGUGGCAAAGUGACUGUGGCUAGACUGCC, the self-cleavage rises from 0.09 to 0.15.

Going from GGCAGAGCUCAAGACAGCGUGGCAAAGUGUCUGUGGCUAGACUGCC to GGCAGAGCUCAAGACAGCGUGGCAAAGUGCCUGUGGCUAGACUGCC, the self-cleavage falls from 0.19 to 0.12.

GGCAGAGCUCAAGACAGCGAGGCAAAGUGGCUGUGGCUAGACUGCC and GGCAGAGCUCAAGACAGCGGGGCAAAGUGGCUGUGGCUAGACUGCC are the same in self-cleavage: 0.13 for the first, 0.13 for the second.

Going from GGCAGAGCUCAAGACAGCGCGGCAAAGUGGCUGUGGCUAGACUGCC to GGCAGAGCUCAAGACAGCGUGGCAAACUGGCUGUGGCUAGACUGCC, the self-cleavage falls from 0.1 to 0.08.

Compared with GGCAGAGCUCAAGACAGCGUGGCAAAAUGGCUGUGGCUAGACUGCC, GGCAGAGCUCAAGACAGCGUGGCAAAUUGGCUGUGGCUAGACUGCC is lower in self-cleavage: 0.27 for the first, 0.26 for the second.

GGCAGAGCUCAAUACAGCGUGGCAAAGUGGCUGUGGCUAGGCUGCC and GGCAGAGCUCAAUACAGCGUGGCAAAGUGGCUGUGGCUAGCCUGCC are the same in self-cleavage: 0.06 for the first, 0.06 for the second.

Going from GGCAGAGCUCAAUACAGCGUGGCAACGUGGCUGUGGCUAGACUGCC to GGCAGAGCUCAAUACAGCGUGGCAAGGUGGCUGUGGCUAGACUGCC, the self-cleavage falls from 0.24 to 0.14.

First: GGCAGAGCUCAAUACAGCGUGGCAAUGUGGCUGUGGCUAGACUGCC
Second: GGCAGAGCUCAAGACAGCGUGGCUAAGUGGCUGUGGCUAGACUGCC
The self-cleavage of the first is lower: 0.15 for the first, 0.16 for the second.

GGCAGAGCUCAAGACAACGUGGCAAAGUGGCUGUGGCUAGACUGCC and GGCAGAGCUCAAGACAUCGUGGCAAAGUGGCUGUGGCUAGACUGCC are the same in self-cleavage: 0.06 for the first, 0.06 for the second.

Going from GGCAGAGCUCAAGACACCGUGGCAAAGUGGCUGUGGCUAGACUGCC to GGCAGAGCUCAAGACAGCGUGGCAAAGUGGCUGUCGCUAGACUGCC, the self-cleavage rises from 0.03 to 0.81.

Going from GGCAGAGCUCAAGACAGCGUGGCAAAGUGGCUGUAGCUAGACUGCC to GGCAGAGCUCAAGACAGCGUGGCAAAGUGGCUGUUGCUAGACUGCC, the self-cleavage rises from 0.07 to 0.85.

Compared with GGCAGAGCUCAAUGCAGCGUGGCAAAGUGGCUGUGGCUAGACUGCC, GGCAGAGCUCAAUCCAGCGUGGCAAAGUGGCUGUGGCUAGACUGCC is lower in self-cleavage: 0.17 for the first, 0.09 for the second.

Going from GGCAGAGCUCAAUUCAGCGUGGCAAAGUGGCUGUGGCUAGACUGCC to GGCAGAGCUCAAGACAGCGUGGCAAAGUGGCUGUGGCUAGAUUGCC, the self-cleavage rises from 0.1 to 0.12.

Compared with GGCAGAGCUCAAGACAGCGUGGCAAAGUGGCUGUGGCUAGAGUGCC, GGCAGAGCUCAAGACAGCGUGGCAAAGUGGCUGUGGCUAGAAUGCC is lower in self-cleavage: 0.09 for the first, 0.07 for the second.

Compared with GGCAGAGCUCAAGACAGCGUGGCAAAGUGGCUGUGGCUAGACCGCC, GGCAGAGCUCAAGACAGCGUGGCAAAGUGGCUGUGGCUAGACGGCC is higher in self-cleavage: 0.02 for the first, 0.66 for the second.
